Measurements: patent US9657061B2, “Hydrochloride salt of peptide and its use in combination with other peptides for immunotherapy” (Circassia Limited, priority 2012, dated 2017)
Where no end group is shown, it is not given here.

Columns and labels:
[1] = Stability of salts of MLA01 on storage: purity by HPLC; type: physicochemical; settings: for course of purity over the 4 week test period (in words): −20° C., 5° C., 25° C./60% RH, 40° C./75% RH
Procedure: (§1) The stability of MLA01 trifluoroacetate, MLA01 acetate and MLA01 hydrochloride when stored in an inert container over a four week period under different storage conditions was tested. The specific storage conditions evaluated are set out in Table 1.
(§2) Samples of each MLA01 salt were stored in inert glass containers with polypropylene twist-off caps. The samples were stored and removed at various time points for testing according to the schedule in Table 2, where X denotes removal of a sample for testing.
The purity of each sample was tested by HPLC. Purity was measured as area-percent, and the results are set out in Tables 3A to 3C below (where “-” denotes test not performed).

[2] = Stability of salts of MLA01 on storage: levels of three specific impurities (RRT 0.978, 1.072, 1.099); type: physicochemical
Procedure: as §1, §2
The levels of three specific impurities with relative retention times (RRTs) of 0.978, 1.072 and 1.099 were also measured. The impurity with an RRT of 0.978 is the impurity formed by cleavage of the terminal Cys-Pro residues from the MLA01 peptide. The impurity with an RRT of 1.072 is the cysteine sulfinic acid impurity of the MLA01 peptide. The impurity with an RRT of 1.099 is the dimer of the MLA01 peptide. The values are set out in Tables 4A to 4C below (where “<” denotes less than 0.1%).

Sequence | purity (HPLC) ([1]; storage 5° C., 2 weeks) | purity (HPLC) ([1]; storage 5° C., 4 weeks) | purity (HPLC) ([1]; storage 25° C./60% RH, 2 weeks) | purity (HPLC) ([1]; storage 25° C./60% RH, 4 weeks) | purity (HPLC) ([1]; storage 40° C./75% RH, 2 weeks) | purity (HPLC) ([1]; storage 40° C./75% RH, 4 weeks) | purity (HPLC) ([1]; storage −20° C., 0 weeks) | purity (HPLC) ([1]; storage −20° C., 2 weeks) | purity (HPLC) ([1]; storage −20° C., 4 weeks) | course of purity over the 4 week test period (in words) [1] | impurity RRT 0.978 (cleavage of the terminal Cys-Pro residues) ([2]; 0 weeks, −20° C.) | impurity RRT 1.072 (cysteine sulfinic acid impurity) ([2]; 0 weeks, −20° C.) | impurity RRT 1.099 (dimer of the MLA01 peptide) ([2]; 0 weeks, −20° C.) | impurity RRT 0.978 (cleavage of the terminal Cys-Pro residues) ([2]; 4 weeks, 40° C./75% RH) | impurity RRT 1.072 (cysteine sulfinic acid impurity) ([2]; 4 weeks, 40° C./75% RH) | impurity RRT 1.099 (dimer of the MLA01 peptide) ([2]; 4 weeks, 40° C./75% RH) | impurity RRT 0.978 (cleavage of the terminal Cys-Pro residues) ([2]; 4 weeks, −20° C.) | impurity RRT 1.072 (cysteine sulfinic acid impurity) ([2]; 4 weeks, −20° C.) | impurity RRT 1.099 (dimer of the MLA01 peptide) ([2]; 4 weeks, −20° C.) | stability compared with other salt forms (in words) ([1]; 4 week storage, all conditions tested)
CPAVKRDVDLFLT [MLA01 acetate] (also: acetate salt) | 82.7 area-percent | 84.2 area-percent | 75.6 area-percent | 67.2 area-percent | 54.0 area-percent | 39.4 area-percent | 90.6 area-percent | 84.5 area-percent | 88.1 area-percent | degraded under all conditions tested | 2.0% | 2.5% | 1.6% | 17.1% | 5.9% | 12.8% | 2.3% | 2.8% | 2.5% | 
CPAVKRDVDLFLT [MLA01 hydrochloride] (also: hydrochloride salt) | 94.0 area-percent | 95.7 area-percent | 94.3 area-percent | 95.5 area-percent | 92.4 area-percent | 95.3 area-percent | 96.6 area-percent | 94.0 area-percent | 95.6 area-percent | stayed constant | <0.1% | 0.1% | 0.34% | 0.2% | 0.2% | 0.6% | 0.1% | <0.1% | 0.7% | more stable than MLA01 acetate or MLA01 trifluoroacetate
CPAVKRDVDLFLT [MLA01 trifluoroacetate] (also: trifluoroacetate salt) | 95.6 area-percent | 95.2 area-percent | 94.4 area-percent | 94.5 area-percent | 91.0 area-percent | 89.4 area-percent | 96.7 area-percent | 95.9 area-percent | 95.8 area-percent | degraded at higher temperature/humidity | <0.1% | <0.1% | 0.3% | 0.9% | 0.2% | 2.8% | <0.1% | <0.1% | 0.6% | 
